Experimental data as given in paper PMC10786891, “Massively parallel profiling of RNA-targeting CRISPR-Cas13d”.

T1: EsCas13d, nuclease-dead (Eubacterium siraeum, UniProt B0MS50, R295A;H300A;R849A;H854A)
T1 sequence: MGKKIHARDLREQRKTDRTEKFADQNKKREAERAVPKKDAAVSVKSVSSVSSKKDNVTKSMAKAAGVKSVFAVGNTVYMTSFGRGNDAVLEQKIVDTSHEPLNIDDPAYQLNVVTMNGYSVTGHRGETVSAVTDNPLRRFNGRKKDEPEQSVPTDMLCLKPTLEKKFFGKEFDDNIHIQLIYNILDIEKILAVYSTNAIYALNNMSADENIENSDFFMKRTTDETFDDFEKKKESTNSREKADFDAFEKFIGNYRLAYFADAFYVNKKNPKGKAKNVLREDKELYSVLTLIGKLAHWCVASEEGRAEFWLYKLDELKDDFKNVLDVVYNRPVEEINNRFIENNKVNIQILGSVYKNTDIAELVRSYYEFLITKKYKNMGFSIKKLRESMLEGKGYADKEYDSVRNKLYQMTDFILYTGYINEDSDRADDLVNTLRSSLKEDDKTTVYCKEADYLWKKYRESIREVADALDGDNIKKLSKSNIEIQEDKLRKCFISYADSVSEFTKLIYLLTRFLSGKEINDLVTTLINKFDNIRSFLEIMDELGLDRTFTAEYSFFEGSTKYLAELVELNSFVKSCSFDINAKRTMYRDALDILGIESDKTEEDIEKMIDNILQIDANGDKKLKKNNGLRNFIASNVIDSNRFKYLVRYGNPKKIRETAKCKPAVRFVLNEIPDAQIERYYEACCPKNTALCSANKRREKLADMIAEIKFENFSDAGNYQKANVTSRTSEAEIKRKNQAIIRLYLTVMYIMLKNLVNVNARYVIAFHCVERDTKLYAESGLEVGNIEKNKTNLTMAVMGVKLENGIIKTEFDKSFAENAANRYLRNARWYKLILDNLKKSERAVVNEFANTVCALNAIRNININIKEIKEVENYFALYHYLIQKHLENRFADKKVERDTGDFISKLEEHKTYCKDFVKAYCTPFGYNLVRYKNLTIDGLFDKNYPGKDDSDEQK

B1: target 1 insC 3' of 9,insC 3' of 5 (mixed)
RNA 1: CACCCGUGCAAAAAUGCAGGGGUCUAAAACUGAGCGGAUAACCUCUCUAUGG
RNA 2: GGGAAUGGAUCCACAUCUACGAAUUCGUACCAUAGAGAGGUUACUCCGCCUCACCGAGAUCGGAAGAGCACACGU
B2: target 1 insC 3' of 8,insG 3' of 1 (mixed)
RNA 1: CACCCGUGCAAAAAUGCAGGGGUCUAAAACUGAGCGGAUAACCUCUCUAUGG
RNA 2: GGGAAUGGAUCCACAUCUACGAAUUCGUACCAUAGAGAGGUUAUCCCGCUCAGCCGAGAUCGGAAGAGCACACGU
B3: target 1 insA 3' of 22,insA 3' of 21 (mixed)
RNA 1: CACCCGUGCAAAAAUGCAGGGGUCUAAAACUGAGCGGAUAACCUCUCUAUGG
RNA 2: GGGAAUGGAUCCACAUCUACGAAUUCGUACACAAUAGAGAGGUUAUCCGCUCACCGAGAUCGGAAGAGCACACGU
B4: target 1 C6U,G12U (mixed)
RNA 1: CACCCGUGCAAAAAUGCAGGGGUCUAAAACUGAGCGGAUAACCUCUCUAUGG
RNA 2: GGGAAUGGAUCCACAUCUACGAAUUCGUACCAUAGAGAGUUUAUCUGCUCACCGAGAUCGGAAGAGCACACGU
B5: target 1 A1G,G17U (mixed)
RNA 1: CACCCGUGCAAAAAUGCAGGGGUCUAAAACUGAGCGGAUAACCUCUCUAUGG
RNA 2: GGGAAUGGAUCCACAUCUACGAAUUCGUACCAUAUAGAGGUUAUCCGCUCGCCGAGAUCGGAAGAGCACACGU
B6: target 1 insC 3' of 15,insU 3' of 1 (mixed)
RNA 1: CACCCGUGCAAAAAUGCAGGGGUCUAAAACUGAGCGGAUAACCUCUCUAUGG
RNA 2: GGGAAUGGAUCCACAUCUACGAAUUCGUACCAUAGAGCAGGUUAUCCGCUCAUCCGAGAUCGGAAGAGCACACGU
B7: target 1 insC 3' of 17,insA 3' of 12 (mixed)
RNA 1: CACCCGUGCAAAAAUGCAGGGGUCUAAAACUGAGCGGAUAACCUCUCUAUGG
RNA 2: GGGAAUGGAUCCACAUCUACGAAUUCGUACCAUAGCAGAGGAUUAUCCGCUCACCGAGAUCGGAAGAGCACACGU
B8: target 1 insC 3' of 15,insA 3' of 2 (mixed)
RNA 1: CACCCGUGCAAAAAUGCAGGGGUCUAAAACUGAGCGGAUAACCUCUCUAUGG
RNA 2: GGGAAUGGAUCCACAUCUACGAAUUCGUACCAUAGAGCAGGUUAUCCGCUCAACCGAGAUCGGAAGAGCACACGU
B9: target 1 G17C,C21A (mixed)
RNA 1: CACCCGUGCAAAAAUGCAGGGGUCUAAAACUGAGCGGAUAACCUCUCUAUGG
RNA 2: GGGAAUGGAUCCACAUCUACGAAUUCGUACAAUACAGAGGUUAUCCGCUCACCGAGAUCGGAAGAGCACACGU
B10: target 1 U10G,U11A (mixed)
RNA 1: CACCCGUGCAAAAAUGCAGGGGUCUAAAACUGAGCGGAUAACCUCUCUAUGG
RNA 2: GGGAAUGGAUCCACAUCUACGAAUUCGUACCAUAGAGAGGAGAUCCGCUCACCGAGAUCGGAAGAGCACACGU
B11: target 1 G5A,C21U (mixed)
RNA 1: CACCCGUGCAAAAAUGCAGGGGUCUAAAACUGAGCGGAUAACCUCUCUAUGG
RNA 2: GGGAAUGGAUCCACAUCUACGAAUUCGUACUAUAGAGAGGUUAUCCACUCACCGAGAUCGGAAGAGCACACGU
B12: target 1 A14C,C21U (mixed)
RNA 1: CACCCGUGCAAAAAUGCAGGGGUCUAAAACUGAGCGGAUAACCUCUCUAUGG
RNA 2: GGGAAUGGAUCCACAUCUACGAAUUCGUACUAUAGAGCGGUUAUCCGCUCACCGAGAUCGGAAGAGCACACGU
B13: target 1 insA 3' of 13,insA 3' of 12 (mixed)
RNA 1: CACCCGUGCAAAAAUGCAGGGGUCUAAAACUGAGCGGAUAACCUCUCUAUGG
RNA 2: GGGAAUGGAUCCACAUCUACGAAUUCGUACCAUAGAGAGAGAUUAUCCGCUCACCGAGAUCGGAAGAGCACACGU
B14: target 1 U10C,U11C (mixed)
RNA 1: CACCCGUGCAAAAAUGCAGGGGUCUAAAACUGAGCGGAUAACCUCUCUAUGG
RNA 2: GGGAAUGGAUCCACAUCUACGAAUUCGUACCAUAGAGAGGCCAUCCGCUCACCGAGAUCGGAAGAGCACACGU
B15: target 1 insC 3' of 8,insU 3' of 1 (mixed)
RNA 1: CACCCGUGCAAAAAUGCAGGGGUCUAAAACUGAGCGGAUAACCUCUCUAUGG
RNA 2: GGGAAUGGAUCCACAUCUACGAAUUCGUACCAUAGAGAGGUUAUCCCGCUCAUCCGAGAUCGGAAGAGCACACGU
B16: target 1 A1G,C6A (mixed)
RNA 1: CACCCGUGCAAAAAUGCAGGGGUCUAAAACUGAGCGGAUAACCUCUCUAUGG
RNA 2: GGGAAUGGAUCCACAUCUACGAAUUCGUACCAUAGAGAGGUUAUCAGCUCGCCGAGAUCGGAAGAGCACACGU
B17: target 1 C7G,A18U (mixed)
RNA 1: CACCCGUGCAAAAAUGCAGGGGUCUAAAACUGAGCGGAUAACCUCUCUAUGG
RNA 2: GGGAAUGGAUCCACAUCUACGAAUUCGUACCAUUGAGAGGUUAUGCGCUCACCGAGAUCGGAAGAGCACACGU
B18: target 1 insC 3' of 8,insC 3' of 1 (mixed)
RNA 1: CACCCGUGCAAAAAUGCAGGGGUCUAAAACUGAGCGGAUAACCUCUCUAUGG
RNA 2: GGGAAUGGAUCCACAUCUACGAAUUCGUACCAUAGAGAGGUUAUCCCGCUCACCCGAGAUCGGAAGAGCACACGU
B19: target 1 del1,del3 (mixed)
RNA 1: CACCCGUGCAAAAAUGCAGGGGUCUAAAACUGAGCGGAUAACCUCUCUAUGG
RNA 2: GGGAAUGGAUCCACAUCUACGAAUUCGUACCAUAGAGAGGUUAUCCGCCCCGAGAUCGGAAGAGCACACGU
B20: target 1 C7U,A18U (mixed)
RNA 1: CACCCGUGCAAAAAUGCAGGGGUCUAAAACUGAGCGGAUAACCUCUCUAUGG
RNA 2: GGGAAUGGAUCCACAUCUACGAAUUCGUACCAUUGAGAGGUUAUUCGCUCACCGAGAUCGGAAGAGCACACGU
B21: target 1 insC 3' of 8,insA 3' of 2 (mixed)
RNA 1: CACCCGUGCAAAAAUGCAGGGGUCUAAAACUGAGCGGAUAACCUCUCUAUGG
RNA 2: GGGAAUGGAUCCACAUCUACGAAUUCGUACCAUAGAGAGGUUAUCCCGCUCAACCGAGAUCGGAAGAGCACACGU
B22: target 1 C7U,G13U (mixed)
RNA 1: CACCCGUGCAAAAAUGCAGGGGUCUAAAACUGAGCGGAUAACCUCUCUAUGG
RNA 2: GGGAAUGGAUCCACAUCUACGAAUUCGUACCAUAGAGAUGUUAUUCGCUCACCGAGAUCGGAAGAGCACACGU
B23: target 1 insC 3' of 9,insG 3' of 2 (mixed)
RNA 1: CACCCGUGCAAAAAUGCAGGGGUCUAAAACUGAGCGGAUAACCUCUCUAUGG
RNA 2: GGGAAUGGAUCCACAUCUACGAAUUCGUACCAUAGAGAGGUUACUCCGCUCGACCGAGAUCGGAAGAGCACACGU
B24: target 1 U10A,C21U (mixed)
RNA 1: CACCCGUGCAAAAAUGCAGGGGUCUAAAACUGAGCGGAUAACCUCUCUAUGG
RNA 2: GGGAAUGGAUCCACAUCUACGAAUUCGUACUAUAGAGAGGUAAUCCGCUCACCGAGAUCGGAAGAGCACACGU
B25: target 1 insC 3' of 20,insC 3' of 13 (mixed)
RNA 1: CACCCGUGCAAAAAUGCAGGGGUCUAAAACUGAGCGGAUAACCUCUCUAUGG
RNA 2: GGGAAUGGAUCCACAUCUACGAAUUCGUACCACUAGAGAGCGUUAUCCGCUCACCGAGAUCGGAAGAGCACACGU
B26: target 1 del3,del4 (mixed)
RNA 1: CACCCGUGCAAAAAUGCAGGGGUCUAAAACUGAGCGGAUAACCUCUCUAUGG
RNA 2: GGGAAUGGAUCCACAUCUACGAAUUCGUACCAUAGAGAGGUUAUCCGCACCGAGAUCGGAAGAGCACACGU
B27: target 1 insC 3' of 15,insC 3' of 1 (mixed)
RNA 1: CACCCGUGCAAAAAUGCAGGGGUCUAAAACUGAGCGGAUAACCUCUCUAUGG
RNA 2: GGGAAUGGAUCCACAUCUACGAAUUCGUACCAUAGAGCAGGUUAUCCGCUCACCCGAGAUCGGAAGAGCACACGU
B28: target 1 insC 3' of 13,insC 3' of 11 (mixed)
RNA 1: CACCCGUGCAAAAAUGCAGGGGUCUAAAACUGAGCGGAUAACCUCUCUAUGG
RNA 2: GGGAAUGGAUCCACAUCUACGAAUUCGUACCAUAGAGAGCGUCUAUCCGCUCACCGAGAUCGGAAGAGCACACGU

The binders below were run against T1, EsCas13d, nuclease-dead (assay: crRNA (strand 1, pre-loaded); Mg2+; 40 mM Tris-HCl pH 7.5, 150 mM NaCl, 6 mM MgCl2, 1 mM DTT, 0.1% Tween-20, 0.2 mg/ml BSA; 25 C; 10 min per concentration, then washed). Conditions: tags: His6-TwinStrep-SUMO cleaved; N-terminal SNAP kept (SNAP-Surface 488); label: 3' end held by stalled T7 RNA polymerase.

Question: Which Kd does the source give for B1 here?
Answer: 10.9 ± 0.7 nM

Question: For B2, which Kd is on record?
Answer: 14.3 ± 1 nM

Question: How did the Kd turn out when B3 was run?
Answer: 16.2 ± 0.9 nM

Question: B4 was tested. Which Kd did it give?
Answer: 11.3 ± 0.8 nM

Question: With B5 as the binder, how does the Kd read?
Answer: 21.3 ± 2.1 nM

Question: B6 was tested. Which Kd did it give?
Answer: 19.1 ± 1.8 nM

Question: How did the Kd turn out when B7 was run?
Answer: 32.9 ± 2.7 nM

Question: Which Kd does the source give for B8 here?
Answer: 15.6 ± 0.8 nM

Question: With B9 as the binder, how does the Kd read?
Answer: 47 ± 12 nM

Question: Which Kd does the source give for B10 here?
Answer: 12.9 ± 1 nM

Question: Which Kd does the source give for B11 here?
Answer: 23 ± 6 nM

Question: How did the Kd turn out when B12 was run?
Answer: 7.3 ± 0.6 nM

Question: B13 was tested. Which Kd did it give?
Answer: 11.8 ± 0.8 nM

Question: How did the Kd turn out when B14 was run?
Answer: 24.7 ± 2.9 nM

Question: Which Kd does the source give for B15 here?
Answer: 26.3 ± 2.5 nM

Question: B16 was tested. Which Kd did it give?
Answer: 7 ± 0.35 nM

Question: With B17 as the binder, how does the Kd read?
Answer: 32 ± 6 nM

Question: With B18 as the binder, how does the Kd read?
Answer: 13 ± 0.9 nM

Question: For B19, which Kd is on record?
Answer: 45 ± 13 nM

Question: Which Kd does the source give for B20 here?
Answer: 26.9 ± 2.3 nM

Question: Which Kd does the source give for B21 here?
Answer: 18.9 ± 1.4 nM

Question: For B22, which Kd is on record?
Answer: 39 ± 6 nM

Question: For B23, which Kd is on record?
Answer: 13.8 ± 0.7 nM

Question: How did the Kd turn out when B24 was run?
Answer: 8.1 ± 0.5 nM

Question: How did the Kd turn out when B25 was run?
Answer: 7.2 ± 0.6 nM

Question: For B26, which Kd is on record?
Answer: 14.4 ± 1.2 nM

Question: How did the Kd turn out when B27 was run?
Answer: 15.6 ± 1.3 nM

Question: B28 was tested. Which Kd did it give?
Answer: 14.2 ± 1 nM
